Results taken from paper PMC4416878.

What was measured:
[1] = target: Golgi anti-apoptotic protein (GAAP) from vaccinia virus strain Evans, purified (vaccinia virus (VACV) strain Evans); experiment: SEC
[2] = target: Golgi anti-apoptotic protein (GAAP) from camelpox virus, wild type, purified (camelpox virus (CMLV)); experiment: SEC

Row | Substance | percent of total protein in oligomeric states (% of total protein) [1] | percent of protein oligomeric [2] [%] | percent of total protein in oligomeric states (% of total protein) [2]
1 | Golgi anti-apoptotic protein (GAAP) from vaccinia virus strain Evans, purified (natural protein) | 64 |  | 
2 | Golgi anti-apoptotic protein (GAAP) from camelpox virus, wild type, purified (natural protein) |  | 84 | 87
